Reference: patent publication US20230322882A1 (NANJING NORMAL UNIVERSITY, published 2023)
Like-named read-outs stand apart in the source and are kept apart here.

T1: CD25, CD122 and CD132 receptor molecules on HEK-Blue IL-2 cells (UniProt P01589 22-272; P14784 27-551; P31785 23-369, limits assumed)
T1 sequence (looked up) 1: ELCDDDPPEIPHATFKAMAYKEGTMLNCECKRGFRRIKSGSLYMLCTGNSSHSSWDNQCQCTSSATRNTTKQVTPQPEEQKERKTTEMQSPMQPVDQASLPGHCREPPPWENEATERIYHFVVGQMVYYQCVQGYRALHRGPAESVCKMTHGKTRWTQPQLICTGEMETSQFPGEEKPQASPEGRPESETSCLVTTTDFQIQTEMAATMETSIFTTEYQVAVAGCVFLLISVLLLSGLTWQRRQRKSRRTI
T1 sequence (looked up) 2: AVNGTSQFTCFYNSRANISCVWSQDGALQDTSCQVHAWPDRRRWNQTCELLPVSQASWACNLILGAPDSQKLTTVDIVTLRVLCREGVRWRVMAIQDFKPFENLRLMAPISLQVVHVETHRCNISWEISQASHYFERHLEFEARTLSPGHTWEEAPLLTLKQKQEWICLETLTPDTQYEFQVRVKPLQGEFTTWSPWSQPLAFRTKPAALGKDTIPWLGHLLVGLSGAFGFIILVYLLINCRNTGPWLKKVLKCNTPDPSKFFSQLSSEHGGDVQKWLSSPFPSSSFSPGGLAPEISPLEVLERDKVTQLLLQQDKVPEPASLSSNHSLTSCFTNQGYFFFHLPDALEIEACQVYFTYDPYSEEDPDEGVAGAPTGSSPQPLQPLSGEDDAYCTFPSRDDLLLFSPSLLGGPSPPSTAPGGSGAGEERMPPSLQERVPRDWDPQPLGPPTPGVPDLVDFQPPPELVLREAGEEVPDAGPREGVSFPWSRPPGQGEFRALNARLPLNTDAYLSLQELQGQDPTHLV
T1 sequence (looked up) 3: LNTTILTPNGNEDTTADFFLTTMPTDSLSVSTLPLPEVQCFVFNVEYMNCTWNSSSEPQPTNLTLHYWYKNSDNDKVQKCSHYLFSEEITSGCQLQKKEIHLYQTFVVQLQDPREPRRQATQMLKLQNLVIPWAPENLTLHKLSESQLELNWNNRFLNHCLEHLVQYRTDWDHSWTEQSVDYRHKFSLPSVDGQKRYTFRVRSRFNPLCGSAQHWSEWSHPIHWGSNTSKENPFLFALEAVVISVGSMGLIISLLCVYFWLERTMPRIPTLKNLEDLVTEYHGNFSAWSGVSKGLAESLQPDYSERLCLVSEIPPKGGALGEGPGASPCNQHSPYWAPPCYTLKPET


What was measured:
[1] = molecular target: T1, CD25, CD122 and CD132 receptor …; experiment: cell-based or functional assay
[2] = molecular target: T1, CD25, CD122 and CD132 receptor …; experiment: cell-based or functional assay; remark: listed apart in the source

EC50 (pM), STAT5-regulated SEAP reporter in HEK-Blue IL-2 cells [1] [pM]	EC50 (pM), STAT5-regulated SEAP reporter in HEK-Blue IL-2 cells [2] [pM]	Binder
10.8		Polypeptide dimer 1 (SEQ ID NO: 31 + SEQ ID NO: 32) (Fc fusion) chain 1: HHHHHHTCPPCPAPEAAGGPSVFLFPPKPKDTLMISRTPEVTCVVVDVSHEDPEVKFNWYVDGVEVHNAKTKPREEQYNSTYRVVSVLTVLHQDWLNGKEYKCKVSNKALGAPIEKTISKAKGQPREPQVYTLPPCREEMTKNQVSLWCLVKGFYPSDIAVEWESNGQPENNYKTTPPVLDSDGSFFLYSKLTVDKSRWQQGNVFSCSVMHEALHNHYTQKSLSLSPGGGGGSGGGGSNFHLRPRDLISNINVIVLELKGSETTFMCEYADETATIVEFLNRWITFSQSIISTLTGSGPASSSTKKTQLQLEHLLLDLQMILNGINNYKNPKLTRMLTFKFYMPKKATELKHLQCLEEELKPLEEVLNLAQSK chain 2: HTCPPCPAPEAAGGPSVFLFPPKPKDTLMISRTPEVTCVVVDVSHEDPEVKFNWYVDGVEVHNAKTKPREEQYNSTYRVVSVLTVLHQDWLNGKEYKCKVSNKALGAPIEKTISKAKGQPREPQVCTLPPSREEMTKNQVSLSCAVKGFYPSDIAVEWESNGQPENNYKTTPPVLDSDGSFFLVSKLTVDKSRWQQGNVFSCSVMHEALHNHYTQKSLSLSPGGGGGSGGGGSELCDDDPPEIPHATFKAMAYKEGTMLNCECKRGFRRIKSGSLYMLCTGNSSHSSWDNQCQCTSSATRNTTKQVTPQPEEQKERKTTEMQSPMQPVDQASLPGHCREPPPWENEATERIYHFVVGQMVYYQCVQGYRALHRGPAESVCKMTHGKTRWTQPQLICTGDYKDDDDK
	10.2	Polypeptide dimer 2 (SEQ ID NO: 33 + SEQ ID NO: 34) (Fc fusion) chain 1: HHHHHHTCPPCPAPEAAGGPSVFLFPPKPKDTLMISRTPEVTCVVVDVSHEDPEVKFNWYVDGVEVHNAKTKPREEQYNSTYRVVSVLTVLHQDWLNGKEYKCKVSNKALGAPIEKTISKAKGQPREPQVCTLPPSREEMTKNQVSLSCAVKGFYPSDIAVEWESNGQPENNYKTTPPVLDSDGSFFLVSKLTVDKSRWQQGNVFSCSVMHEALHNHYTQKSLSLSPGGGGGSGGGGSNFHLRPRDLISNINVIVLELKGSETTFMCEYADETATIVEFLNRWITFSQSIISTLTGSGPASSSTKKTQLQLEHLLLDLQMILNGINNYKNPKLTRMLTFKFYMPKKATELKHLQCLEEELKPLEEVLNLAQSK chain 2: HTCPPCPAPEAAGGPSVFLFPPKPKDTLMISRTPEVTCVVVDVSHEDPEVKFNWYVDGVEVHNAKTKPREEQYNSTYRVVSVLTVLHQDWLNGKEYKCKVSNKALGAPIEKTISKAKGQPREPQVYTLPPCREEMTKNQVSLWCLVKGFYPSDIAVEWESNGQPENNYKTTPPVLDSDGSFFLYSKLTVDKSRWQQGNVFSCSVMHEALHNHYTQKSLSLSPGGGGGSGGGGSELCDDDPPEIPHATFKAMAYKEGTMLNCECKRGFRRIKSGSLYMLCTGNSSHSSWDNQCQCTSSATRNTTKQVTPQPEEQKERKTTEMQSPMQPVDQASLPGHCREPPPWENEATERIYHFVVGQMVYYQCVQGYRALHRGPAESVCKMTHGKTRWTQPQLICTGDYKDDDDK
